The values that follow come from patent CN111234012A.

This assay concerns the target HBV病毒 (HepAD38细胞上清制备的HBV病毒液). As to the kind of experiment: cell-based or functional assay.

As to 乙肝免疫球蛋白 (HBIG) (antibody), the HBV neutralisation on HepG2-NTCP cells, HBeAg in supernatant (IC50) was found to be 15 µg/mL.
